Patent publication US9512178B2, “Neurogenic brain-derived neurotrophic factor peptides” (Research Foundation for Mental Hygiene, Inc., priority 2012, dated 2016)

Key:
[1] = in vivo; cited from earlier work
[2] = direct administration into the CNS; cited from earlier work
[3] = molecular target: T1, TrkB receptor (Mus musculus, UniProt P15209); assay: TrkB phosphorylation (Tyr 706) and TrkB level in primary E18 hippocampal cells, with or without K252a; format: cell-based; conditions: 20 ng/ml
T1 construct: endogenous in cells; host or cells: primary hippocampal neurons from embryonic day 18 C57BL/6 mice
T1 sequence (P15209 32-821): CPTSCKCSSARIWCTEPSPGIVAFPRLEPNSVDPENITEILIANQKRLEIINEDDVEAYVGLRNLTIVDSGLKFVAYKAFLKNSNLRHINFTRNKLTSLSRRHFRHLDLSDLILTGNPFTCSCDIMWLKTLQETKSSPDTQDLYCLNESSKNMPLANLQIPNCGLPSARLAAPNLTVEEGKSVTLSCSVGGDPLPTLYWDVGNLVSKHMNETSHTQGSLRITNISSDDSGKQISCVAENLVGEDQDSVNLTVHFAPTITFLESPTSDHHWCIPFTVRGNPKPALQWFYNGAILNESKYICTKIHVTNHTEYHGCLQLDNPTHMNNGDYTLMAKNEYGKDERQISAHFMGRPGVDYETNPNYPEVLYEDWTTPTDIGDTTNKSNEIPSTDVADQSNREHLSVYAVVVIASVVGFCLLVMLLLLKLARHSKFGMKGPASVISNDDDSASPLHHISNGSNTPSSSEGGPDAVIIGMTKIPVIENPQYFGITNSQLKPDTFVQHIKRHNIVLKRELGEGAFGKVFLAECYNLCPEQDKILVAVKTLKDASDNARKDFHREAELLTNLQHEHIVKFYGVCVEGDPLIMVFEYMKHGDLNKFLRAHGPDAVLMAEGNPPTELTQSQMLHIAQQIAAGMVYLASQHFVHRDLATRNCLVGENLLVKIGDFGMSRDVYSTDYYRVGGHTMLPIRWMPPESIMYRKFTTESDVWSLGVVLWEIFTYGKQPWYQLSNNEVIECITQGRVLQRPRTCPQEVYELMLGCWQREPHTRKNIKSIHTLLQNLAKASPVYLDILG
Experimental: Peptides were dissolved in water in serial dilutions of 10 mM, 1 mM, 100 μM and 10 μM from which the necessary amount was added directly to the culture medium to a final concentration of 0.05 μM, 1 μM, or 10 μM. The BDNF (Peprotech, NJ, USA) was used as a reference in concentrations of 20 ng/ml (0.79 nM) and 100 ng/ml (3.95 nM). Cycloheximide (CHX) (Sigma-Aldrich, St Louis, Mo., USA) was used for blocking protein synthesis. CHX original stock was 100 mg/ml (355.4 mM) in DMSO; from a second stock of 35.54 mM in DMSO, the dilutions were made to the final concentrations of 100 μM. The K252a (CALBIOCHEM/EMD) was used to inhibit the TrkB Receptor. From a stock of 100 μM in DMSO, K252a was diluted to a final working concentration of 200 nM. The E18 primary hippocampal cells were pre-treated with CHX or K252a 1 h prior to the addition of the peptides or BDNF and a time course of these treatments for 15 min, 60 min and 2 days was studied.
Following treatment in 6-well plates, cells were washed 2× in glucose buffered saline, GBS (5.4 mM KCl, 138 mM NaCl, 22 mM glucose, and 2 mM Na—KPO pH 7.2), and then lysed by 5 min incubation on ice in 100 or 150 μl of ice-cold RIPA buffer (PBS, 1% w/v NP-40 from Fisher Scientific, 0.1% w/v SDS, and 0.5% w/v sodium desoxycholate) containing 1 mM AEBSF (Gold Biotechnology, St. Louis, Mo., USA), 10 μg/ml aprotinin (Sigma-Aldrich, St. Louis, Mo., USA), and 20 μg/ml of leupeptin and pepstatin (US Biochemicals, Cleveland, Ohio, USA), and phosphatase inhibitors: NaF, Na orthovanadate, (3-glycerophosphate, and microcystein (Sigma-Aldrich, St. Louis, Mo., USA). Extracts were prepared by collecting and pooling a minimum of 2 wells by scraping, and lysates were centrifuged at 20,000×g for 10 min at 4° C. Protein concentration of each cell lysate was determined using the BCA kit (Thermo Scientific, Rockford, Ill., USA). The lysates (7.5-20 μg total protein) were separated on 10% SDS-PAGE gels (except for BDNF where 12% gels were employed) and transferred to 0.45 μm PVDF membrane (Pall, Pensacola, Fla., USA) for probing with antibodies as noted. Blots were blocked for 1 hr at 37° C. in 1×TBST (0.05% Tween 20 in TBS) containing 5% w/v blotting grade dry milk (Bio-rad, Hercules, Calif., USA), incubated in primary antibody overnight in blocking buffer at 4° C., washed 3×10 min in TBST at room temperature, followed by incubation with secondary antibody, i.e., peroxidase-conjugated anti-mouse or anti rabbit IgG (Jackson ImmunoResearch Laboratories, West Grove, Pa., USA) diluted in blocking buffer. Blots were washed 3×10 min in TBST and immunoreactive protein bands were visualized with enhanced chemiluminescence (ECL) reagents (Pierce, Rockford, Ill., USA). The ECL films of the blots were scanned and analyzed using Multi Gauge software version 3.0 (Fujifilm, Tokyo, Japan).
The following primary antibodies were used: rabbit polyclonal anti-NFM (1:1000; Chemicon/Millipore, Billerica, Mass., USA); mouse monoclonal anti-NeuN, clone A60 (1:500; Millipore, Billerica, Mass., USA); rabbit polyclonal anti-Tuj-1, (3—III-tubulin (Covance; 1:800, Emeryville, Calif., USA); mouse monoclonal SMI 52 to the adult isoforms of MAP-2, MAP2a,b (1:1000; Covance, Emeryvilly, Calif., USA); rabbit polyclonal anti-Synapsin I (1:2000; Stressgen, Farmingdale, N.Y., USA); rabbit monoclonal anti-PSD95 (1:1000; Cell signaling, Danvers, Mass., USA); anti tau 92e (1:10000); mouse monoclonal anti-BDNF (1:1000; Calbiochem, Gibbstown, N.J., USA); rabbit polyclonal anti-TrkB (total) (1:500; Santa Cruz Biotechnology, Santa Cruz, Calif., USA); rabbit polyclonal anti-pTrkB (Tyr706) (1:400; Santa Cruz Biotechnology, Santa Cruz, Calif., USA), TrkC (1:1000; Cruz Biotechnology, Santa Cruz, Calif., USA); and pTrkY490 (1:500; Upstate USA Inc., Charlottesville, Va., USA). For loading control, the blots were developed with rabbit polyclonal antibody to GAPDH (1:2000; Santa Cruz Biotechnology, Santa Cruz, Calif., USA). […]

[4] = molecular target: T2, TrkC (Homo sapiens, UniProt Q16288); assay: Trk phosphorylation and TrkC expression in TrkC stably-expressing NIH-3T3 cells; format: cell-based; conditions: 20 ng/mL
T2 construct: expressed in transfected cells; host or cells: NIH-3T3 fibroblasts
T2 sequence (Q16288 32-839, species assumed): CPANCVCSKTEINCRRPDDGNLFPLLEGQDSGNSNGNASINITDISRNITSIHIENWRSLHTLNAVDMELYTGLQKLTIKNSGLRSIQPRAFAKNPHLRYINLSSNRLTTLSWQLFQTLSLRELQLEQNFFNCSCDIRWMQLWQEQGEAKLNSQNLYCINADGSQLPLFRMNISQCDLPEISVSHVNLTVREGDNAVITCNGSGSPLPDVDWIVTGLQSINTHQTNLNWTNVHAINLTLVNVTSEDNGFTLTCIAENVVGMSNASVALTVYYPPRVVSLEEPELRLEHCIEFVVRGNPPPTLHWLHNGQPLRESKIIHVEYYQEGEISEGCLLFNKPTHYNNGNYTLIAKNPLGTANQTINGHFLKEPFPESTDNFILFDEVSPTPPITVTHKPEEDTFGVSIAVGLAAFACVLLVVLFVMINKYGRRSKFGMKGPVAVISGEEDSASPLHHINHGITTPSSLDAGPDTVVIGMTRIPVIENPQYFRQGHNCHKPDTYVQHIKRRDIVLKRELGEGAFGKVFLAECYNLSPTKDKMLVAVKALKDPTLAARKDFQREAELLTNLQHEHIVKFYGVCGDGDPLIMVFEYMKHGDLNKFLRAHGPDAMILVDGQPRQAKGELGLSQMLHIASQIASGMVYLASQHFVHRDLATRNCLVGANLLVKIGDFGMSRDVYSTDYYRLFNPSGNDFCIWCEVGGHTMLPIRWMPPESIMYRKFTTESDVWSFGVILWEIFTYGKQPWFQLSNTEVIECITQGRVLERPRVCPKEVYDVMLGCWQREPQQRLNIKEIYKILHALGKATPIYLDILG

B1: BDNF: Brain derived neurotrophic factor (Peprotech), used as a reference at 20 ng/ml and 100 ng/ml (protein, UniProt P23560 19-247, looked up)
Neurotrophic factor BDNF …: APMKEANIRGQGGLAYPGVRTHGTLESVNGPKAGSRGLTSLADTFEHVIEELLDEDQKVRPNEENNKDADLYTSRVMLSSQVPLEPPLLFLLEEYKNYLDAANMSMRVRRHSDPARRGELSVCDSISEWVTAADKKTAVDMSGGTVTVLEKVPVSKGQLKQYFYETKCNPMGYTKEGCRGIDKRHWNSQCRTTQSYVRALTMDSKKRIGWRFIRIDTSCVCTLTIKRGR
blood brain barrier (BBB) and intraparenchymal penetrations [1]: poor
plasma half-life [1]: less than 1 min
undesirable effects [2]: weight loss, dysaesthesias (impairment of sensation), and in some cases, pain
increase in the phosphorylation of the TrkB receptor ([3]; 5 min, without K252a): significant
activation of TrkB (pTrkB Tyr 706 normalized to total TrkB) ([3]; 1 h): strong and significant activation
activation of TrkC receptor [4]: neither the peptides nor BDNF were able to activate this receptor
expression of TrkC [4]: neither BDNF (20 ng/mL) nor peptides B-5 (1 μM) and B-3 (1 μM) were able to modify the expression of TrkC
